Laboratory results reported in paper PMC10936776, “Structural and functional characterization of AfsR, an SARP family transcriptional activator of antibiotic biosynthesis in Streptomyces” (PLOS Biology, 2024).
Blank lines part the entries; values can stand above or below the molecule they belong to.

B3: AfsR T337A mutant (natural protein, S. coelicolor, UniProt P25941 1-993, looked up)
chain: MDGGPRVPEQRRPGFPAEEEESGALRFGVLGPVRAWRDGETLATGSPQQRALLAALLLREGRTATAGELIDALWGEEPPSQALAAVRTYASRLRKVLDPGVLVSESGGYAVRGLAEGALDLARAQDLASAAEKARSAGDLCHARDLLRRALDLWDGEVLAGVPGPYAQTQRVRLGEWRLQLLETRLDMDLDQGCHAEAVSELTALTAAHPLRERLRELLMLALYRSGRQAEALAVYADTRRLLADELGVDPRPGLQELQQRILQADPALAELSAATAETATATLRPAQLPATVSDFTGRAAFVRELSDVLSAASGESASGRVMAVSALAGIGGVGKATLAVHVAHRARAAFPDGQLYVDLQGAGARPAEPETVLGSFLRALGTADSAIPDSLEERAALYRSVLDGRRVLVLLDNARDAAQVRPLLPGTDGCAALVTARVRMVDLAGAHLVDLDVMAPEEALALFTKIVGEERVASERQAALDVVGACGFLPLAIRIAASRLAARRTWTVSVLAAKLADERRRLDELQAGDQAVEATFELGYGQLEPAQARAFRLLGLADGPDISLAAAAAVLDLPAQDTEDLLESLVDTSLLESAAPGRYRFHDLVRLYARACAERTERDGNAPSERGAALSRLLDFYLATAAGVYAIERPGDRLVDGLEPTEYPGLTFTEGSAALDWLYTEAAPLLACVRQSAGTARLRRAVDLLWAAKDLTESGANSHQYEATARAMCDATGSAADTRAEGRARTVLSDVLLVSGRIEHAEEEARLAMRLAGSAEDSAAVSWVANNRGLVCLHQRRYAEGKGLFHQAIAGFRATDNRAGEASALSNLSRAQLGMGNVAEAVDIARQGLAVYAELGRTMRLANGHFALGVALTRAGRHEEALGEFAEALDLFGDHRQRLWEGATNFRLAEVHLAAGRPSSAAQHAEQALALGCIGGDRMRGNVLALLGRALSALGQADRARACWREALSLYEQHDAQEVGEVRALLARSVAR
notes: AfsR, S. coelicolor, full-length protein with T337A; Preincubated with afsS promoter DNA and 1 mM ATPγS for AfsR-TIC; Vector and host of the mutant are surmised from the wild type

Assays:
[1] = biological target: T1, AfsR (dephosphorylated AfsR) (Streptomyces coelicolor, UniProt P25941); assay: in vitro MangoIII transcription assay after preincubation; assay type: biochemical; details: 500 nM dephosphorylated AfsR, 1 mM GTP preincubation 10 min 30 °C, RNAP-σHrdB, RbpA, CarD; activator
T1 construct: full-length, 993 residues, pET28a (His-tagged), E. coli BL21(DE3), Ni-NTA and SEC; wild type treated with lambda phosphatase (E. coli protein carries pT337); mainly monomer

AfsR T337A mutant = biological target: B3; assay: cryo-EM structure; AfsR_(T337A)-TIC: 32 uM AfsR_(T337A) preincubated with 5 uM afsS promoter DNA and 1 mM ATPγS, mixed with RNAP core, σ^HrdB, CarD, RbpA; assembling buffer; Superose 6; nominal resolution 3.63 Å, SARP region 5.10 Å; details: both partners purified
[2] = substrate: Nc1ncnc2c1ncn2[C@@H]1O[C@H](COP(=O)(O)OP(=O)(O)OP(=O)(O)O)[C@@H](O)[C@H]1O; assay: Malachite green phosphate ATPase assay; assay type: biochemical, Streptomyces coelicolor; details: phosphomimetic 4E mutant, phosphatase treatment not stated, 5 μM protein, 20 mM Tris-HCl pH 7.5, 150 mM NaCl, 5 mM MgCl2, 30 min
[3] = biological target: the molecule itself; assay: SEC; Superdex 200; 20 mM Tris pH 8.0, 150 mM NaCl, 5% glycerol; protein alone, without DNA
[4] = biological target: T2, Streptomyces coelicolor RNA polymerase β subunit (S. coelicolor, UniProt Q9L0L0 1-1161); assay: cryo-EM structure; AfsR_(T337A)-TIC: 32 uM AfsR_(T337A) preincubated with 5 uM afsS promoter DNA and 1 mM ATPγS, mixed with RNAP core, σ^HrdB, CarD, RbpA; assembling buffer; Superose 6; nominal resolution 3.63 Å, SARP region 5.10 Å; details: both partners purified
T2 construct: RNA polymerase subunit beta, S. coelicolor; Stood in the assay as a subunit of the RNAP core in the holoenzyme; also called RNAP β; β flap; source: S. coelicolor RNAP purified as described previously [37]

[5] = biological target: T3, Streptomyces coelicolor RNA polymerase β′ subunit (S. coelicolor, UniProt Q8CJT1 1-1299); assay: as above; details: both partners purified
T3 construct: RNA polymerase subunit beta', S. coelicolor; Stood in the assay as a subunit of the RNAP core in the holoenzyme; also called RNAP β′; β′ ZBD; source: S. coelicolor RNAP purified as described previously [37]

[6] = biological target: the molecule itself; assay: as above

Molecule: Nc1nc2c(ncn2[C@@H]2O[C@H](COP(=O)(O)OP(=O)(O)OP(=O)(O)O)[C@@H](O)[C@H]2O)c(=O)[nH]1 [GTP]
transcription activation [1]: preincubating dephosphorylated AfsR with ATP or GTP significantly enhances its transcription activation

binding result (AfsR T337A mutant): binds
B1: Streptomyces coelicolor RNA polymerase sigma factor σ^HrdB (natural protein, S. coelicolor)
chain: MSASTSRTLPPEIAESVSVMALIERGKAEGQIAGDDVRRAFEADQIPATQWKNVLRSLNQILEEEGVTLMVSAAEPKRTRKSVAAKSPAKRTATKAVAAKPVTSRKATAPAAPAAPATEPAAVEEEAPAKKAAAKKTTAKKATAKKTTAKKAAAKKTTAKKEDGELLEDEATEEPKAATEEPEGTENAGFVLSDEDEDDAPAQQVAAAGATADPVKDYLKQIGKVPLLNAEQEVELAKRIEAGLFAEDKLANSDKLAPKLKRELEIIAEDGRRAKNHLLEANLRLVVSLAKRYTGRGMLFLDLIQEGNLGLIRAVEKFDYTKGYKFSTYATWWIRQAITRAMADQARTIRIPVHMVEVINKLARVQRQMLQDLGREPTPEELAKELDMTPEKVIEVQKYGREPISLHTPLGEDGDSEFGDLIEDSEAVVPADAVSFTLLQEQLHSVLDTLSEREAGVVSMRFGLTDGQPKTLDEIGKVYGVTRERIRQIESKTMSKLRHPSRSQVLRDYLD
notes: principal sigma factor HrdB, S. coelicolor; region 1.1 disordered in the map; Stood in the assay as part of the RNAP σ^HrdB-holoenzyme; also called σ subunit; σ R4 (region 4); source: purified as described previously [37]

B2: AfsR 4E mutant (S391E/T337E/T506E/S953E) (natural protein, S. coelicolor, UniProt P25941 1-993, looked up)
chain: MDGGPRVPEQRRPGFPAEEEESGALRFGVLGPVRAWRDGETLATGSPQQRALLAALLLREGRTATAGELIDALWGEEPPSQALAAVRTYASRLRKVLDPGVLVSESGGYAVRGLAEGALDLARAQDLASAAEKARSAGDLCHARDLLRRALDLWDGEVLAGVPGPYAQTQRVRLGEWRLQLLETRLDMDLDQGCHAEAVSELTALTAAHPLRERLRELLMLALYRSGRQAEALAVYADTRRLLADELGVDPRPGLQELQQRILQADPALAELSAATAETATATLRPAQLPATVSDFTGRAAFVRELSDVLSAASGESASGRVMAVSALAGIGGVGKETLAVHVAHRARAAFPDGQLYVDLQGAGARPAEPETVLGSFLRALGTADSAIPDELEERAALYRSVLDGRRVLVLLDNARDAAQVRPLLPGTDGCAALVTARVRMVDLAGAHLVDLDVMAPEEALALFTKIVGEERVASERQAALDVVGACGFLPLAIRIAASRLAARREWTVSVLAAKLADERRRLDELQAGDQAVEATFELGYGQLEPAQARAFRLLGLADGPDISLAAAAAVLDLPAQDTEDLLESLVDTSLLESAAPGRYRFHDLVRLYARACAERTERDGNAPSERGAALSRLLDFYLATAAGVYAIERPGDRLVDGLEPTEYPGLTFTEGSAALDWLYTEAAPLLACVRQSAGTARLRRAVDLLWAAKDLTESGANSHQYEATARAMCDATGSAADTRAEGRARTVLSDVLLVSGRIEHAEEEARLAMRLAGSAEDSAAVSWVANNRGLVCLHQRRYAEGKGLFHQAIAGFRATDNRAGEASALSNLSRAQLGMGNVAEAVDIARQGLAVYAELGRTMRLANGHFALGVALTRAGRHEEALGEFAEALDLFGDHRQRLWEGATNFRLAEVHLAAGRPSSAAQHAEQALALGCIGGDRMRGNVLALLGRALEALGQADRARACWREALSLYEQHDAQEVGEVRALLARSVAR
notes: AfsR, S. coelicolor, with glutamate substitutions at all 4 phosphorylation sites of NOD and TPR; Likely made like wild-type AfsR (pET28a, E. coli BL21(DE3))
Km [2]: 995 ± 152 µM | kcat [2]: 0.147 ± 0.00841 s⁻¹ | binding result [3]: binds

Molecule: B3
binding result [4]: binds | binding result [5]: binds | binding result [6]: binds

binding result (AfsR T337A mutant): binds
B4: Streptomyces coelicolor RNA polymerase α subunit (natural protein, S. coelicolor)
chain: MLIAQRPSLTEEVVDEFRSRFVIEPLEPGFGYTLGNSLRRTLLSSIPGAAVTSIRIDGVLHEFTTVPGVKEDVTDLILNIKQLVVSSEHDEPVVMYLRKQGPGLVTAADIAPPAGVEVHNPDLVLATLNGKGKLEMELTVERGRGYVSAVQNKQVGQEIGRIPVDSIYSPVLKVTYKVEATRVEQRTDFDKLIVDVETKQAMRPRDAMASAGKTLVELFGLARELNIDAEGIDMGPSPTDAALAADLALPIEELELTVRSYNCLKREGIHSVGELVARSEADLLDIRNFGAKSIDEVKAKLAGMGLALKDSPPGFDPTAAADAFGADDDADAGFVETEQY
notes: RNA polymerase subunit alpha, S. coelicolor; Stood in the assay as a subunit of the RNAP core in the holoenzyme; density for one αCTD is seen; also called αCTD (C-terminal domain of the α subunit); source: S. coelicolor RNAP purified as described previously [37]
